# Laboratory results as given in PMC5903867, “Hexameric and pentameric complexes of the ExbBD energizer in the Ton system” (eLife, 2018).
# B1: ExbB (natural protein, Escherichia coli, UniProt P0ABU7 1-244, looked up)
# chain: MGNNLMQTDLSVWGMYQHADIVVKCVMIGLILASVVTWAIFFSKSVEFFNQKRRLKREQQLLAEARSLNQANDIAADFGSKSLSLHLLNEAQNELELSEGSDDNEGIKERTSFRLERRVAAVGRQMGRGNGYLATIGAISPFVGLFGTVWGIMNSFIGIAQTQTTNLAVVAPGIAEALLATAIGLVAAIPAVVIYNVFARQIGGFKAMLGDVAAQVLLLQSRDLDLEASAAAHPVRVAQKLRAG
# notes: ExbB, Escherichia coli, full length; inner membrane protein of the Ton system; residues about 10-234 resolved in the crystal; Forms hexamers and pentamers depending on pH, so copies is left open; also called ExbB hexamer; ExbB pentamer; source: E. coli BL21 (DE3) Gold, pET-21b, co-expressed with ExbD, purified from the membrane fraction in detergent (IMAC, SEC); not shown: His6, C-terminal, kept
# B2: ExbD (natural protein, Escherichia coli, UniProt P0ABV2 1-141, looked up)
# chain: MAMHLNENLDDNGEMHDINVTPFIDVMLVLLIIFMVAAPLATVDVKVNLPASTSTPQPRPEKPVYLSVKADNSMFIGNDPVTDETMITALNALTEGKKDTTIFFRADKTVDYETLMKVMDTLHQAGYLKIGLVGEETAKAK
# notes: ExbD, Escherichia coli, full length, no tag; only the TM helix is modelled in the cryo-EM maps; The PDB entries hold only the TM helix (ExbDTM) of ExbD; also called ExbDTM (its TM helix as modelled); ExbD trimer; source: E. coli BL21 (DE3) Gold, pET-21b, co-expressed with ExbB-His6, co-purified in detergent (IMAC, SEC)
# Key:
# [1] = biological target: the molecule itself; test: cryo-EM structure; single particle, frozen-hydrated ExbBD complex in LMNG, 10 mM Na-citrate pH 5.4; reference-free 2D classification and 3D reconstruction of the pentameric complex at 7.1 Å, 5-fold symmetry enforced
# [2] = biological target: the molecule itself; test: negative-stain EM of 2D crystals; purified ExbBD complex (C8E4) reconstituted with E. coli total lipid extract by dialysis, 25 mM Na-citrate pH 5.4, 150 mM NaCl, 4°C; Fourier filtering of crystal patches
# [3] = biological target: the molecule itself; test: crystal structure; ExbBD complex purified in C8E4 or C10E5; crystals grown at pH 9.0 (0.1 M glycine, 0.15 M CaCl2, ~40% PEG 350 MME), 20°C; space group P2_(1), 2.8 Å, molecular replacement
# [4] = biological target: the molecule itself; test: cryo-EM structure; single particle, frozen-hydrated ExbBD complex in LMNG, 10 mM Tris-HCl pH 8.0; reference-free 2D classification and 3D reconstruction of the hexameric complex at 6.7 Å, no symmetry applied
# ExbB [5] = biological target: B1; test: cryo-EM structure; single particle, frozen-hydrated ExbBD complex in LMNG, 10 mM Na-citrate pH 5.4; reference-free 2D classification and 3D reconstruction of the pentameric complex at 7.1 Å, 5-fold symmetry enforced; conditions: both partners purified
# ExbB [6] = biological target: B1; test: cryo-EM structure; single particle, frozen-hydrated ExbBD complex in LMNG, 10 mM Tris-HCl pH 8.0; reference-free 2D classification and 3D reconstruction of the hexameric complex at 6.7 Å, no symmetry applied; conditions: both partners purified
Binder,ratio of pentamer to hexamer [1] [pentamer per hexamer],stoichiometry N [2] [subunits],stoichiometry N [3] [subunits],ratio of hexamer to pentamer (printed as pentamer:hexamer) [4] [hexamer per pentamer],stoichiometry N (ExbB [5]) [ExbD per ExbB pentamer],stoichiometry N (ExbB [6]) [ExbD per ExbB hexamer],stoichiometry N [4] [subunits]
B1,3,5,6,3,–,–,–
B2,–,–,–,–,1,3,3
